Laboratory results from patent US20250295801A1, “CD25 ANTIBODIES, ANTIBODY DRUG CONJUGATES, AND USES THEREOF” (Seagen Inc., priority 2024, published 2025).
Positions count from the first letter of the chain named. Like-named read-outs stand apart in the source and are kept apart here.

T1: mouse CD25 on Yac-1 mouse lymphoma cells (mouse) (UniProt P01590)
T1 sequence (looked up): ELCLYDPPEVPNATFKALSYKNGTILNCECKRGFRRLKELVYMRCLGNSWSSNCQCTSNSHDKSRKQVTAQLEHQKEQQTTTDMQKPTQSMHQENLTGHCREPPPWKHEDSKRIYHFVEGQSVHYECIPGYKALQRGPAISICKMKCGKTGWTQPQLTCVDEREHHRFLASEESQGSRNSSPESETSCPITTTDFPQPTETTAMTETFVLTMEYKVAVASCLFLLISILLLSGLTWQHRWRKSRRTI

T2: recombinant cynomolgus CD25 (cynomolgus, UniProt H6WS54 22-213)
T2 construct: also called cyno CD25; cynomolgus CD25/IL2RA
T2 sequence: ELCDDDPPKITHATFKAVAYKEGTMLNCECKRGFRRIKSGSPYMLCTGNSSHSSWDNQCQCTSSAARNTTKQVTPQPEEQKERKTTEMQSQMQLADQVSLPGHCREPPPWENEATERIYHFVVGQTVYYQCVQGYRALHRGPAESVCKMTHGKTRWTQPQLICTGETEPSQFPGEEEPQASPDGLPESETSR

T3: human CD25 on CD25 expressing cells (human, UniProt P01589 22-272)
T3 construct: Endogenous CD25 on human lymphoma lines (L540cy, Karpas-299) and on human Treg cells; also called CD25 on L540cy cells; CD25 on Karpas-299 cells
T3 sequence: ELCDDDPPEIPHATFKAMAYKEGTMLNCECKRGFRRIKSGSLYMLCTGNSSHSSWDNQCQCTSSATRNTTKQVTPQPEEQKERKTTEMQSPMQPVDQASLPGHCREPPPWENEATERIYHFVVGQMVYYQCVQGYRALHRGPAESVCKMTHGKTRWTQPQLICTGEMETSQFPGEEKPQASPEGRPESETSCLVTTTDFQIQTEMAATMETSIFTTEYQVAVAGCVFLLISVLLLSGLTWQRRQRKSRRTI

T4: recombinant human CD25 (human, UniProt P01589 22-213, limits assumed, biotinylated in the Octet kinetic assay (site not stated))
T4 construct: Soluble recombinant antigen; It was coated on plates for ELISA and used as bought biotinylated protein for BLI; The ELISA and BLI reagents may be different constructs; also called hCD25; CD25/IL2RA
T4 sequence: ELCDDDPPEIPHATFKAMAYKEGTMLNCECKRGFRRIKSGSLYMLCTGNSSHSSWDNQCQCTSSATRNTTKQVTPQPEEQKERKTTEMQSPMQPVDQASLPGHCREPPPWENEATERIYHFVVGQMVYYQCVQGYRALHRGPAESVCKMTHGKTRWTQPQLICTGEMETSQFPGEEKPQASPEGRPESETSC

B1: PC61 mIgG2a (antibody, from another filing, V domains shown)
VH: EVQLQQSGAELVRPGTSVKLSCKVSGDTITAYYIHFVKQRPGQGLEWIGRIDPEDDSTEYAEKFKNKATITANTSSNTAHLKYSRLTSEDTATYFCTTDNMGATEFVYWGQGTLVTVSS
VL: QVVLTQPKSVSASLESTVKLSCKLNSGNIGSYYMHWYQQREGRSPTNLIYRDDKRPDGAPDRFSGSIDISSNSAFLTINNVQTEDEAMYFCHSYDGRMYIFGGGTKLTV
B2: CD25 antibody SG25Ab-4 (antibody, human IgG1, lambda, V domains shown)
VH: EVQLVQSGAEVKKPGESLKISCKGPEYSFNRYWIAWVRQRPGKGLEWMGIIYPGDSDARYSPTFEGHVTLSADMSLTTAYLQWSSLRASDTAMYYCARLGSYYAFDIWGKGTMVTVSS
VL: QSALTQPASVSGSPGQSITIFCTGTSSDVGGYNYVSWYQQHPGKAPKLMIYDVSKRPSGVSNRFSGSKSGNTASLTISGLQAEDEADYYCSSYTSSSTWVFGGGTQLTVLS
notes: IgG1 format; also called SGAb25-4
B3: CD25 antibody SG25Ab-9 (antibody, human IgG1, lambda, V domains shown)
VH: QVQLVQSGAEVKKPGESLKISCKGSGYSSTSYWIGWVRQMPGKGLEWMGIIYPGDSDTRYSPSFQGQVTISADKSISTAYLQWSSLKASDTAMYYCARLGSYYAFDIWGRGTMVTVSS
VL: QSALTQPASVSASPGQSITISCTGTSSDVGAYIYVSWYQQLSGKPPKLILYDVSKRPSGISDRFSGSKSGNTASLTISGLQADDEADYYCSSYTRSSTWVFGGGTQLTVLG
notes: Fully human antibody from a phage scFv library, expressed as IgG1 with a lambda light chain; HC and LC are the entries without signal peptide; also called SG25Ab-9 IgG1; SGAb25-9
B4: SG25Ab-9 variant YH99A (antibody, V domains shown)
VH: B3 VH with Y103A
VL: B3 VL
notes: Kabat-type numbering, not linear
B5: detuned CD25 antibody SG25Ab-9 YH98A (antibody, human IgG1, lambda, V domains shown)
VH: B3 VH with Y102A
VL: B3 VL
notes: IgG1; Tyr to Ala in CDR-H3 (YH98A); also called SGAb25-9 YH98A
B6: SG25Ab-9 variant YH27A (antibody, V domains shown)
VH: B3 VH with Y27A
VL: B3 VL
B7: SG25Ab-9 variant SH28W (antibody, V domains shown)
VH: B3 VH with S28W
VL: B3 VL
B8: SG25Ab-9 variant GH53Y (antibody, V domains shown)
VH: B3 VH with G54Y
VL: B3 VL
B9: SG25Ab-9 variant SH55N (antibody, V domains shown)
VH: B3 VH with S56N
VL: B3 VL
B10: SG25Ab-9 variant FH100AA (antibody, V domains shown)
VH: B3 VH with F105A
VL: B3 VL
B11: SG25Ab-9 variant FH100AN (antibody, V domains shown)
VH: B3 VH with F105N
VL: B3 VL
B12: SG25Ab-9 variant DH101K (antibody, V domains shown)
VH: B3 VH with D106K
VL: B3 VL
B13: SG25Ab-9 variant YH32A (antibody, V domains shown)
VH: B3 VH with Y32A
VL: B3 VL
B14: SG25Ab-9 variant YH52A (antibody, V domains shown)
VH: B3 VH with Y52A
VL: B3 VL
B15: SG25Ab-9 variant DH54K (antibody, V domains shown)
VH: B3 VH with D55K
VL: B3 VL
B16: SG25Ab-9 variant DH56K (antibody, V domains shown)
VH: B3 VH with D57K
VL: B3 VL
B17: SG25Ab-9 variant GH96W (antibody, V domains shown)
VH: B3 VH with G100W
VL: B3 VL
B18: SG25Ab-9 variant AH100F (antibody, V domains shown)
VH: B3 VH with A104F
VL: B3 VL

Experiments:
[1] = target: T1, mouse CD25 on Yac-1 mouse lymphoma cells (mouse); assay: saturation binding by flow cytometry on Yac-1 cells
[2] = target: T2, recombinant cynomolgus CD25; assay: ELISA on plate-coated cynomolgus CD25
Experimental: (§1) Saturation binding ELISA experiments were performed using soluble recombinant antigens, which were diluted to an appropriate concentration in 50 mM carbonate buffer, pH 9.6. To each well of a 96- or 384-well Maxisorb ELISA plate was added 100 μL of soluble antigen. The plate was sealed and stored at 4° C. overnight. The plate was then washed 3-5 times with PBS-T was buffer (PBS, pH 7.4+0.05% Tween-20). The wells were blocked using 300 μL/well of PBS-T buffer containing BSA for 1 hour at room temperature, then washed 3-5 times with PBS-T. Dilutions of antibodies were prepared in blocking buffer and added to each well in a volume of 100 μL. The antibodies were incubated for 1 hour at room temperature, and then washed 3-5 times with PBS-T. HRP-conjugated secondary antibodies (anti-human Fc) were then added and incubated for 1 hour at room temperature. The plate was washed 3-5 times with PBS-T. The ELISA was developed by adding 100 μL of TMB solution and incubating for 3-15 min at room temperature. To stop the reaction, 100 μL of 1 N sulfuric acid was added to each well. The absorbance at 450 nm was determined using a Spectramax 190 plate reader (Molecular Biosciences) and the data plotted using GraphPad Prism 6.

[3] = target: T3, human CD25 on CD25 expressing cells; assay: saturation binding by flow cytometry on Karpas 299 cells (CD25: 123,000 per cell), GeoMean MFI
Experimental: (§2) For cellular binding analysis by FACS, cells expressing the target protein of interest (2×10⁵) were treated with a serial dilution of indicated antibody in staining buffer (PBS, 5% FBS, 0.2% NaN₃). Samples were incubated for 1 hour on ice and washed twice with ice-cold staining buffer. Cells were resuspended with anti-human IgG-AF488 or IgG-AF647 (JacksonImmunoResearch), 1:200 dilution in staining buffer) for 1 hour on ice. Cells were washed twice with ice cold staining buffer and resuspended in staining buffer. Labeled cells were examined by flow cytometry on an Invitrogen Attune NxT flow cytometer gated to exclude nonviable cells, and the data analyzed using FlowJo10 software. When determined, the KD was calculated using GraphPad Prism 6 using non-linear regression.

[4] = target: T4, recombinant human CD25; assay: saturation binding ELISA on recombinant human CD25
Experimental: as §1

[5] = target: T4, recombinant human CD25; assay: BLI kinetics (Octet RED384), biotinylated hCD25 on SAX tips, 1:1 global fit
Experimental: Biotinylated recombinant human CD25 was obtained from Acro Biosystems. Biotinylated hCD25 protein was loaded on SAX (High sensitivity streptavidin) tips at 0.8 nM loading density. Affinity measurements were run using a ForteBio Octet RED384 instrument in the kinetic buffer comprising 1×PBS, 0.1% BSA, 0.02% Tween20, pH 7.4. Association measurements were performed for 300 seconds and disassociation measurements were performed for 900 seconds. Each curve was reference subtracted and modeled using a 1:1 global fit. KD results are reported as kₐ divided by kd.

[6] = target: T2, recombinant cynomolgus CD25; assay: saturation binding ELISA on plate-coated recombinant cynomolgus CD25
Experimental: as §1

[7] = target: T2, recombinant cynomolgus CD25; assay: saturation binding ELISA on recombinant cynomolgus CD25
Experimental: as §1

[8] = target: T4, recombinant human CD25; assay: saturation binding ELISA on recombinant human CD25; remark: listed apart in the source
Experimental: as §1

[9] = target: T3, human CD25 on CD25 expressing cells; assay: saturation binding by flow cytometry on L540cy cells (CD25: 55,000 per cell), MFI (Gmean)
Experimental: as §2
(§3) Saturation binding analysis was also performed using high CD25 expressing L540cy cells.

[10] = target: T3, human CD25 on CD25 expressing cells; assay: as above; remark: listed apart in the source
Experimental: as §2, §3

[11] = target: T4, recombinant human CD25; assay: saturation binding ELISA on recombinant human CD25; remark: listed apart in the source
Experimental: as §1

[12] = target: T4, recombinant human CD25; assay: saturation binding ELISA on plate-coated recombinant human CD25
Experimental: as §1

[13] = target: T2, recombinant cynomolgus CD25; assay: saturation binding ELISA on recombinant cynomolgus CD25; EC50 relative to SG25Ab-9
Experimental: as §1

[14] = target: T4, recombinant human CD25; assay: saturation binding ELISA on recombinant human CD25; EC50 relative to SG25Ab-9
Experimental: as §1

Row | Binder | Kd [5] | koff [5] | kon [5] | EC50 (read off the curve) [10] | other results
1 | B1 | – | – | – | – | Kd [1]: 0.7 nM
2 | B2 | – | – | – | – | EC50 (read off the curve) [2]: ~0.1 nM; binding result [3]: binds
3 | B3 | 0.1 nM | 2.7e-05 s⁻¹ | 210000 M⁻¹ s⁻¹ | ~0.8 nM | EC50 (read off the curve) [4]: 0.1 to 0.2 nM; EC50 (read off the curve) [6]: 0.1 to 0.2 nM; EC50 [7]: 0.25 nM; EC50 [8]: 0.1 nM; EC50 (read off the curve) [2]: 0.1 to 0.2 nM; EC50 (read off the curve) [9]: ~1 nM; EC50 (read off the curve) [11]: 0.1 to 0.2 nM; EC50 (read off the curve) [12]: 0.1 to 0.2 nM
4 | B4 | 21.5 nM | 0.0085 s⁻¹ | 390000 M⁻¹ s⁻¹ | – | –
5 | B5 | 14 nM | 0.0043 s⁻¹ | 310000 M⁻¹ s⁻¹ | – | Fold Change [13]: ~950; Fold Change [14]: ~1160; EC50 [7]: ~238 nM; EC50 [8]: ~116 nM
6 | B6 | 0.1 nM | 2.6e-05 s⁻¹ | 240000 M⁻¹ s⁻¹ | ~0.9 nM | EC50 (read off the curve) [4]: ~0.2 nM
7 | B7 | 0.1 nM | 3.8e-05 s⁻¹ | 300000 M⁻¹ s⁻¹ | ~0.9 nM | EC50 (read off the curve) [4]: ~0.2 nM
8 | B8 | 0.1 nM | 8.1e-05 s⁻¹ | 1.6e+06 M⁻¹ s⁻¹ | 1 to 2 nM | EC50 (read off the curve) [4]: ~0.2 nM
9 | B9 | 0.1 nM | 2.8e-05 s⁻¹ | 220000 M⁻¹ s⁻¹ | ~0.9 nM | EC50 (read off the curve) [4]: ~0.2 nM
10 | B10 | 0.6 nM | 0.00017 s⁻¹ | 290000 M⁻¹ s⁻¹ | – | EC50 (read off the curve) [9]: 1 to 2 nM; EC50 (read off the curve) [11]: ~0.8 nM
11 | B11 | 0.3 nM | 5.7e-05 s⁻¹ | 200000 M⁻¹ s⁻¹ | – | EC50 (read off the curve) [9]: 1 to 2 nM; EC50 (read off the curve) [11]: ~0.3 nM
12 | B12 | 0.2 nM | 0.0001 s⁻¹ | 420000 M⁻¹ s⁻¹ | – | EC50 (read off the curve) [9]: ~1 nM; EC50 (read off the curve) [11]: ~0.2 nM
13 | B13 | 0.8 nM | 0.00023 s⁻¹ | 300000 M⁻¹ s⁻¹ | ~5 nM | –
14 | B14 | 1.3 nM | 0.001 s⁻¹ | 780000 M⁻¹ s⁻¹ | ~4 nM | –
15 | B15 | 24.2 nM | 0.0079 s⁻¹ | 330000 M⁻¹ s⁻¹ | – | –
16 | B16 | 151 nM | 0.004 s⁻¹ | 26000 M⁻¹ s⁻¹ | – | –
17 | B17 | 0.5 nM | 0.001 s⁻¹ | 1.9e+06 M⁻¹ s⁻¹ | – | –
18 | B18 | 3.9 nM | 0.0012 s⁻¹ | 310000 M⁻¹ s⁻¹ | – | –
